{"source": "paper PMC4268158", "about": "(Nature, 2014)", "binders": {"B1": {"name": "CsgGC1S, non-lipidated soluble periplasmic form, C-terminally StrepII-tagged (pPG2) (natural protein, Escherichia coli, UniProt P0AEA2 16-277, looked up)", "chain": "SLTAPPKEAARPTLMPRAQSYKDLTHLPAPTGKIFVSVYNIQDETGQFKPYPASNFSTAVPQSATAMLVTALKDSRWFIPLERQGLQNLLNERKIIRAAQENGTVAINNRIPLQSLTAANIMVEGSIIGYESNVKSGGVGARYFGIGADTQYQLDQIAVNLRVVNVSTGEILSSVNTSKTILSYEVQAGVFRFIDYQRLLEGEVGYTSNEPVMLCLMSAIETGVIFLINDGIDRGLWDLQNKAERQNDILVKYRHMSVPPES"}, "B2": {"name": "CsgG, native membrane-extracted, C-terminally StrepII-tagged (pPG1) (natural protein, Escherichia coli, UniProt P0AEA2 16-277, looked up)", "chain": "B1 chain with S1C", "modifications": "diacylglycerol- and amide-linked acyl chain on the N-terminal Cys (lipid anchor)"}, "B3": {"name": "CsgE-his (pNH27), P0AE95 23-129 (natural protein)", "chain": "VEVEVPGLLTDHTVSSIGHDFYRAFSDKWESDYTGNLTINERPSARWGSWITITVNQDVIFQTFLFPLKRDFEKTVVFALIQTEEALNRRQINQALLSTGDLAHDEF"}}, "key": {"[1]": {"target": "the molecule itself", "test": "SEC + other: negative-stain EM"}, "[2]": {"target": "the molecule itself", "test": "cryo-EM structure"}, "[3]": {"target": "the molecule itself", "test": "SEC + other: negative-stain EM", "remark": "listed apart in the source"}, "[4]": {"target": "T1, CsgE-his (pNH27) (Escherichia coli), P0AE95", "T1 chain": "B3 chain", "test": "cryo-EM class averages", "conditions": "remark: other sources report otherwise"}, "[5]": {"target": "T1, CsgE-his (pNH27) (Escherichia coli), …", "test": "SEC", "conditions": "remark: other sources report otherwise"}, "[6]": {"target": "T1, CsgE-his (pNH27) (Escherichia coli), …", "test": "negative-stain EM", "conditions": "remark: other sources report otherwise"}, "[7]": {"target": "T1, CsgE-his (pNH27) (Escherichia coli), …", "test": "cryo-EM structure", "conditions": "remark: other sources report otherwise"}}, "note": "Substitutions are numbered along the chain they refer to. Where “and” joins values, the source holds several entries; their conditions need not be identical. Equal values may be shown once.", "data": [{"binder": "B1", "values": [{"measurement": "stoichiometry N", "setting": "[1]", "result": "16 and 8"}]}, {"binder": "B2", "values": [{"measurement": "stoichiometry N", "setting": "[2]", "result": 9}, {"measurement": "stoichiometry N", "setting": "[3]", "result": 18}]}, {"binder": "B3", "values": [{"measurement": "stoichiometry N", "setting": "[4]", "result": 9}, {"measurement": "stoichiometry N", "setting": "[5]", "result": 9.16}, {"measurement": "stoichiometry N", "setting": "[6]", "result": 9}, {"measurement": "stoichiometry N", "setting": "[7]", "result": 9}]}]}
